Article PMC9063845

Experiments:
Experiment in all cases: SEC; preparative HiLoad 16/600 Superdex 200 pg (120 ml), 20 mM HEPES, 50 mM NaCl pH 7.5; elution at ~85 ml compared with protein standards (~60 kDa)
[1] = target: spisPink (Stylophora pistillata)
[2] = target: gfasPurple (Galaxea fascicularis)
[3] = target: amilCP (Acropora millepora)
[4] = target: eforRed (Echinopora forsaliana)

spisPink (natural protein)
stoichiometry N [1]: 2

gfasPurple (natural protein)
stoichiometry N [2]: 2

amilCP (natural protein)
stoichiometry N [3]: 2

eforRed (natural protein)
stoichiometry N [4]: 2
